Source: patent US11278600B2, “Human alpha-galactosidase variants” (Codexis, Inc., priority 2014, dated 2022)

Key:
Type in all cases: biochemical
[1] = HTP-analysis of supernatants pretreated with base (MUGal hydrolysis); settings: for Relative Activity of GLA Variants After Challenge at pH 9.7: activity of the variant/activity of Rd3BB (SEQ ID NO: 13), yeast supernatant
Method in brief: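 GLA variants secreted from yeast INVSc1; culture supernatants pre-incubated with McIlvaine buffer pH 7.0–8.2 or 200 mM bicarbonate pH 9.1–9.7 at 37° C. for 1–18 h. Residual activity: MUGal (4 mM stock) hydrolysis at pH 4.3–4.8, 37° C., 30–180 min, carbonate quench; fluorescence Ex 355/Em 448 nm.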

[2] = HTP-analysis of yeast culture supernatants, no challenge (MUGal hydrolysis)
Method in brief: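 GLA variants expressed in yeast INVSc1, secreted into SD-Ura broth over 66-84 h at 30° C; clarified supernatants tested without challenge. Supernatant mixed with McIlvaine buffer pH 4.8 and 2 mM MUGal (citrate/KCl, pH 4.6), 37° C for 30-180 min, carbonate-quenched, fluorescence Ex 355/Em 448 nm.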

[3] = HTP-analysis of supernatants pretreated with acid (MUGal hydrolysis); settings: for Relative Activity of GLA Variants After Challenge at pH 3.3: activity of the variant/activity of Rd3BB (SEQ ID NO: 13), yeast supernatant
Method in brief: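 GLA variants were secreted from INVSc1 yeast grown 66-84 h at 30° C. in SD-Ura with 2% glucose; supernatants were mixed with McIlvaine buffer pH 3.3-4.3 and held at 37° C. for 1-3 h. Residual activity on MUGal at pH 4.8 was then measured by fluorescence.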

[4] = activity of the variant/activity of Rd3BB (SEQ ID NO: 13), yeast supernatant

B1: 631 (protein)
chain: LDNGLARTPTMGWLHWERFMCNLDCQEEPDSCISEKLFMEMAERMVTEGWKDAGYEYLCIDDCWMAPQRDSEGRLQADPQRFPHGIRQLANHVHSKGLKLGIYADVGNKTCAGFPGSFGYYDIDAQTFADWGVDLLKFDGCYCDSLENLADGYKHMSLALNRTGRPIVYSCEWPLYMWPFQKPNYTEIRQYCNHWRNFADIDDSWASIKSILDWTSRNQERIVDVAGPGGWNDPDMLVIGNFGLSWDQQVTQMALWAIMAAPLFMSNDLRAISPQAKALLQDKDVIAINQDPLGKQGYQLRKGDNFEVWERPLSGDAWAVAIINRQEIGGPRSYTIPVASLGKGVACNPACFITQLLPVKRQLGFYNWTSRLKSHINPTGTVLLQLENTQQMSLKDLL
modifications: Synthetic Polypeptide sequence of Variant No. 631 of mature Human GLA
In the case of B1, the “Relative Activity of GLA Variants After Challenge at pH 9.7” value [1] is reported as “++ (++ = >5 to 10 relative activity over Rd3BB (SEQ ID NO: 13))”, the “Relative Activity of GLA Variants After No Challenge (NC)” value [2, 4] is reported as “+ (+ = 1.5 to 5 relative activity over Rd3BB (SEQ ID NO: 13))” and the “Relative Activity of GLA Variants After Challenge at pH 3.3” value [3] is reported as “+ (+ = 1.5 to 5 relative activity over Rd3BB (SEQ ID NO: 13))”.

B2: 660 (protein)
chain: LDNGLARTPTMGWLHWERFMCNLDCQEEPDSCISEKLFEEMAERMVTEGWKDAGYEYLCIDDCWMAPQRDSEGRLQADPQRFPHGIRQLANHVHSKGLKLGIYADVGNKTCAGFPGSFGYYDIDAQTFADWGVDLLKFDGCYCDSLENLADGYKHMSLALNRTGRPIVYSCEWPLYMWPFQKPNYTEIRQYCNHWRNFADIDDSWASIKSILDWTSRNQERIVDVAGPGGWNDPDMLVIGNFGLSWDQQVTQMALWAIMAGPLFMSNDLRAISPQAKALLQDKDVIAINQDPLGKQGYQLRKGDLFEVWERPLSGDAWAVAIINRQEIGGPRSYTIPVASLGKGVACNPACFITQLLPVKRQLGFYNWTSRLKSHINPTGTVLLQLENTMQTSLKDLL
modifications: Synthetic Polypeptide sequence of Variant No. 660 of mature Human GLA
With B2 the “Relative Activity of GLA Variants After Challenge at pH 7.5” value ([1]; activity of the variant/activity of Rd7BB (SEQ ID NO: 44), challenge at pH 7.5) was “− (<0.5 relative activity to Rd7BB (SEQ ID NO: 44))”, the “Relative Activity of GLA Variants After No Challenge (NC)” value ([2]; activity of the variant/activity of Rd7BB (SEQ ID NO: 44)) was “+ (>0.5 to 1.5 relative activity over Rd7BB (SEQ ID NO: 44))” and the “Relative Activity of GLA Variants After Challenge at pH 3.5” value ([3]; activity of the variant/activity of Rd7BB (SEQ ID NO: 44), challenge at pH 3.5) was “+ (>0.5 to 1.5 relative activity over Rd7BB (SEQ ID NO: 44))”.

B3: 632 (protein)
chain: LDNGLARTPTMGWLHWERFMCNLDCQEEPDSCISEKLFMEMAERMVNEGWKDAGYEYLCIDDCWMAPQRDSEGRLQADPQRFPHGIRQLANHVHSKGLKLGIYADVGNKTCAGFPGSFGYYDIDAQTFADWGVDLLKFDGCYCDSLENLADGYKHMSLALNRTGRPIVYSCEWPLYMWPFQKPNYTEIRQYCNHWRNFADIDDSWASIKSILDWTSRNQERIVDVAGPGGWNDPDMLVIGNFGLSWDQQVTQMALWAIMAAPLFMSNDLRAISPQAKALLQDKDVIAINQDPLGKQGYQLRKGDNFEVWERPLSGDAWAVAIINRQEIGGPRSYTIPVASLGKGVACNPACFITQLLPVKRQLGFYNWTSRLKSHINPTGTVLLQLENTMQTSLKDLL
modifications: Synthetic Polypeptide sequence of Variant No. 632 of mature Human GLA
With B3 the “Relative Activity of GLA Variants After Challenge at pH 9.7” value [1] was “++ (++ = >5 to 10 relative activity over Rd3BB (SEQ ID NO: 13))”, the “Relative Activity of GLA Variants After No Challenge (NC)” value [2, 4] was “+ (+ = 1.5 to 5 relative activity over Rd3BB (SEQ ID NO: 13))” and the “Relative Activity of GLA Variants After Challenge at pH 3.3” value [3] was “++ (++ = >5 to 10 relative activity over Rd3BB (SEQ ID NO: 13))”.
